Source: US8642284B1, “Methods for identifying agents that alter NAD-dependent deacetylation activity of a SIR2 protein” (Massachusetts Institute of Technology, priority 1999, dated 2014)

B1: P285A: recombinant mSir2α core domain mutant, residue changed to alanine (protein)
chain: MADEVALALQAAGSPSAAAAMEAASQPADEPLRKRPRRDGPGLGRSPGEPSAAVAPAAAGCEAASAAAPAALWREAAGAAASAEREAPATAVAGDGDNGSGLRREPRAADDFDDDEGEEEDEAAAAAAAAAIGYRDNLLLTDGLLTNGFHSCESDDDDRTSHASSSDWTPRPRIGPYTFVQQHLMIGTDPRTILKDLLPETIPPPELDDMTLWQIVINILSEPPKRKKRKDINTIEDAVKLLQECKKIIVLTGAGVSVSCGIPDFRSRDGIYARLAVDFPDLPDAQAMFDIEYFRKDPRPFFKFAKEIYPGQFQPSLCHKFIALSDKEGKLLRNYTQNIDTLEQVAGIQRILQCHGSFATASCLICKYKVDCEAVRGDIFNQVVPRCPRCPADEPLAIMKPEIVFFGENLPEQFHRAMKYDKDEVDLLIVIGSSLKVRPVALIPSSIPHEVPQILINREPLPHLHFDVELLGDCDVIINELCHRLGGEYAKLCCNPVKLSEITEKPPRPQKELVHLSELPPTPLHISEDSSSPERTVPQDSSVIATLVDQATNNNVNDLEVSESSCVEEKPQEVQTSRNVENINVENPDFKAVGSSTADKNERTSVAETVRKCWPNRLAKEQISKRLEGNQYLFVPPNRYIFHGAEVYSDSEDDVLSSSSCGSNSDSGTCQSPSLEEPLEDESEIEEFYNGLEDDTERPECAGGSGFGADGGDQEVVNEAIATRQELTDVNYPSDKS
modifications: left off: small tags and cut ends
notes: recombinant mSir2α core domain mutant, residue changed to alanine
B2: G255A: recombinant mSir2α core domain mutant, residue changed to alanine (protein)
chain: MADEVALALQAAGSPSAAAAMEAASQPADEPLRKRPRRDGPGLGRSPGEPSAAVAPAAAGCEAASAAAPAALWREAAGAAASAEREAPATAVAGDGDNGSGLRREPRAADDFDDDEGEEEDEAAAAAAAAAIGYRDNLLLTDGLLTNGFHSCESDDDDRTSHASSSDWTPRPRIGPYTFVQQHLMIGTDPRTILKDLLPETIPPPELDDMTLWQIVINILSEPPKRKKRKDINTIEDAVKLLQECKKIIVLTGAAVSVSCGIPDFRSRDGIYARLAVDFPDLPDPQAMFDIEYFRKDPRPFFKFAKEIYPGQFQPSLCHKFIALSDKEGKLLRNYTQNIDTLEQVAGIQRILQCHGSFATASCLICKYKVDCEAVRGDIFNQVVPRCPRCPADEPLAIMKPEIVFFGENLPEQFHRAMKYDKDEVDLLIVIGSSLKVRPVALIPSSIPHEVPQILINREPLPHLHFDVELLGDCDVIINELCHRLGGEYAKLCCNPVKLSEITEKPPRPQKELVHLSELPPTPLHISEDSSSPERTVPQDSSVIATLVDQATNNNVNDLEVSESSCVEEKPQEVQTSRNVENINVENPDFKAVGSSTADKNERTSVAETVRKCWPNRLAKEQISKRLEGNQYLFVPPNRYIFHGAEVYSDSEDDVLSSSSCGSNSDSGTCQSPSLEEPLEDESEIEEFYNGLEDDTERPECAGGSGFGADGGDQEVVNEAIATRQELTDVNYPSDKS
modifications: left off: small tags and cut ends
notes: as for B1
B3: I262A: recombinant mSir2α core domain mutant, residue changed to alanine (protein)
chain: MADEVALALQAAGSPSAAAAMEAASQPADEPLRKRPRRDGPGLGRSPGEPSAAVAPAAAGCEAASAAAPAALWREAAGAAASAEREAPATAVAGDGDNGSGLRREPRAADDFDDDEGEEEDEAAAAAAAAAIGYRDNLLLTDGLLTNGFHSCESDDDDRTSHASSSDWTPRPRIGPYTFVQQHLMIGTDPRTILKDLLPETIPPPELDDMTLWQIVINILSEPPKRKKRKDINTIEDAVKLLQECKKIIVLTGAGVSVSCGAPDFRSRDGIYARLAVDFPDLPDPQAMFDIEYFRKDPRPFFKFAKEIYPGQFQPSLCHKFIALSDKEGKLLRNYTQNIDTLEQVAGIQRILQCHGSFATASCLICKYKVDCEAVRGDIFNQVVPRCPRCPADEPLAIMKPEIVFFGENLPEQFHRAMKYDKDEVDLLIVIGSSLKVRPVALIPSSIPHEVPQILINREPLPHLHFDVELLGDCDVIINELCHRLGGEYAKLCCNPVKLSEITEKPPRPQKELVHLSELPPTPLHISEDSSSPERTVPQDSSVIATLVDQATNNNVNDLEVSESSCVEEKPQEVQTSRNVENINVENPDFKAVGSSTADKNERTSVAETVRKCWPNRLAKEQISKRLEGNQYLFVPPNRYIFHGAEVYSDSEDDVLSSSSCGSNSDSGTCQSPSLEEPLEDESEIEEFYNGLEDDTERPECAGGSGFGADGGDQEVVNEAIATRQELTDVNYPSDKS
modifications: left off: small tags and cut ends
notes: as for B1
B4: S257A: recombinant mSir2α core domain mutant, residue changed to alanine (protein)
chain: MADEVALALQAAGSPSAAAAMEAASQPADEPLRKRPRRDGPGLGRSPGEPSAAVAPAAAGCEAASAAAPAALWREAAGAAASAEREAPATAVAGDGDNGSGLRREPRAADDFDDDEGEEEDEAAAAAAAAAIGYRDNLLLTDGLLTNGFHSCESDDDDRTSHASSSDWTPRPRIGPYTFVQQHLMIGTDPRTILKDLLPETIPPPELDDMTLWQIVINILSEPPKRKKRKDINTIEDAVKLLQECKKIIVLTGAGVAVSCGIPDFRSRDGIYARLAVDFPDLPDPQAMFDIEYFRKDPRPFFKFAKEIYPGQFQPSLCHKFIALSDKEGKLLRNYTQNIDTLEQVAGIQRILQCHGSFATASCLICKYKVDCEAVRGDIFNQVVPRCPRCPADEPLAIMKPEIVFFGENLPEQFHRAMKYDKDEVDLLIVIGSSLKVRPVALIPSSIPHEVPQILINREPLPHLHFDVELLGDCDVIINELCHRLGGEYAKLCCNPVKLSEITEKPPRPQKELVHLSELPPTPLHISEDSSSPERTVPQDSSVIATLVDQATNNNVNDLEVSESSCVEEKPQEVQTSRNVENINVENPDFKAVGSSTADKNERTSVAETVRKCWPNRLAKEQISKRLEGNQYLFVPPNRYIFHGAEVYSDSEDDVLSSSSCGSNSDSGTCQSPSLEEPLEDESEIEEFYNGLEDDTERPECAGGSGFGADGGDQEVVNEAIATRQELTDVNYPSDKS
modifications: left off: small tags and cut ends
notes: as for B1
B5: G253A: recombinant mSir2α core domain mutant, glycine 253 changed to alanine (protein)
chain: MADEVALALQAAGSPSAAAAMEAASQPADEPLRKRPRRDGPGLGRSPGEPSAAVAPAAAGCEAASAAAPAALWREAAGAAASAEREAPATAVAGDGDNGSGLRREPRAADDFDDDEGEEEDEAAAAAAAAAIGYRDNLLLTDGLLTNGFHSCESDDDDRTSHASSSDWTPRPRIGPYTFVQQHLMIGTDPRTILKDLLPETIPPPELDDMTLWQIVINILSEPPKRKKRKDINTIEDAVKLLQECKKIIVLTAAGVSVSCGIPDFRSRDGIYARLAVDFPDLPDPQAMFDIEYFRKDPRPFFKFAKEIYPGQFQPSLCHKFIALSDKEGKLLRNYTQNIDTLEQVAGIQRILQCHGSFATASCLICKYKVDCEAVRGDIFNQVVPRCPRCPADEPLAIMKPEIVFFGENLPEQFHRAMKYDKDEVDLLIVIGSSLKVRPVALIPSSIPHEVPQILINREPLPHLHFDVELLGDCDVIINELCHRLGGEYAKLCCNPVKLSEITEKPPRPQKELVHLSELPPTPLHISEDSSSPERTVPQDSSVIATLVDQATNNNVNDLEVSESSCVEEKPQEVQTSRNVENINVENPDFKAVGSSTADKNERTSVAETVRKCWPNRLAKEQISKRLEGNQYLFVPPNRYIFHGAEVYSDSEDDVLSSSSCGSNSDSGTCQSPSLEEPLEDESEIEEFYNGLEDDTERPECAGGSGFGADGGDQEVVNEAIATRQELTDVNYPSDKS
modifications: left off: small tags and cut ends
notes: recombinant mSir2α core domain mutant, glycine 253 changed to alanine

Tested on: histone H2B
Experiment: ADP-ribosylation activity of wild type and mutant recombinant mSir2α proteins on histones
Assay type: biochemical, calf
Conditions: 10 μg recombinant protein; H2B radioactivity, wild type = 100%
Description: Site-directed mutagenesis of mSIR2α core domain was performed with the GeneEditor™ system (Promega, Madison, Wis.) according to the procedure provided by the manufacturer. The mutant recombinant proteins were prepared in the same way as described above.
The typical reaction was performed in 50 or 100 μl of the buffer containing 5 mM Tris-HCl [pH8.0 or 9.0], 4 mM MgCl2, 0.2 mM DTT, 1 μM cold β-NAD^+ (SIGMA®) and 8 μCi nicotinamide adenine dinucleotide 5′[α-^32P]triphosphate (NAD) as a donor of ADP-ribose (˜1000 Ci/mmol, Amersham Pharmacia Biotech). To check the sensitivity to poly- or mono-ADP-ribosylation inhibitors, 3-aminobenzamide (ICN Pharmaceuticals, CA), benzamide, novobiocin and coumermycin A1 (SIGMA®) were added to the reactions prior to adding Sir2 proteins, respectively. The wild type or mutant recombinant proteins (0.5-1 μg for ySir2p and 10 μg of mSir2α) were added with 4 μg of each histone purchased from Roche Molecular Biochemicals (Indianapolis, Ind.). For the peptide experiments, 5-10 μg of unacetylated or acetylated N-terminal tail peptides (amino acids 1-20) of H3 and H4 purchased from Upstate Biotechnology™ (Lake Placid, N.Y.) were used as substrates of the yeast and mouse Sir2 recombinant proteins.
To analyze histone modification, 25 μl of 100% trichloroacetic acid (TCA) solution was mixed to the reaction mixture and left on ice for 15 min. The protein precipitates were centrifuged at 4° C. and washed with 5 or 20% TCA solution twice. The pellets were dissolved in 15 μl of Leammli's sample buffer and boiled for 1.5 min. The proteins were electrophoresed in a 10-20% gradient SDS-PAGE gel. The gel was stained with COOMASSIE® Brilliant Blue R-250 (GibcoBRL Life Technologies™, Frederick, Md.) to check equal loading of histones, dried, and exposed to KODAK® X-OMAT film.
Aliquots of recombinant protein (10 μg) of the wild type recombinant mSir2α (WT), the pET control pET, and the mutant proteins (G253A, G255A, S257A, I262A, F265A, R266A, G270A, P285A, T336A, H355A) were incubated with H2B or H3. […] All of the mutations of highly conserved residues dramatically affected the mono-ADP-ribosylation activity of mSir2α (FIG. 6B). The results were similar using H2B or H3.
The radioactivity of H2B modified by the wild type is assigned to 100% and other data were normalized according to the wild type activity and blots quantitated by Phosphorimaging. The averages and the standard deviations were calculated from two independent experiments. In the core domain of ySir2p, mutations on highly conserved residues also affected the mono-ADP-ribosylation activity. Therefore, the core domain of Sir2 proteins contain the catalytic activity of mono-ADP-ribosylation and the evolutionarily conserved residues in the core domain are essential for this activity.

| Molecule | mono-ADP-ribosylation activity compared to the wild type activity |
| --- | --- |
| B1 | 5% |
| B2 | completely abolished the activity |
| B3 | completely abolished the activity |
| B4 | completely abolished the activity |
| B5 | completely abolished the activity |
